Results from article PMC7752914.

Tests used:
[1] = molecular target: α2βγ heterotetramer of wild-type HsIDH3 (human) (UniProt P50213); assay: SEC-MALS; low concentration (2 mg/ml); Superdex 200 10/300 GL, 24 °C, 10 mM HEPES pH 7.4, 200 mM NaCl, 5 mM β-ME
[2] = molecular target: α2βγ heterotetramer of wild-type HsIDH3 (human) (UniProt P50213); assay: SEC-MALS; high concentration (12 mg/ml); Superdex 200 10/300 GL, 24 °C, 10 mM HEPES pH 7.4, 200 mM NaCl, 5 mM β-ME

- stoichiometry N (heterotetramers in the heterooctamer) [1]: 2
- stoichiometry N (heterotetramers in the heterooctamer) [2]: 2
Substance: α2βγ heterotetramer of wild-type HsIDH3 (from UniProt P50213 28-366; O43837 35-385; P51553 40-393) (complex)
